± gives the uncertainty stated by the source.
Assay: self-splicing fitness, log relative to wild type (ln ratio); higher = more splicing; Tetrahymena group I intron in knt gene, E. coli kanamycin selection, DiMSum; sequences stand for … in CUCUCU…GGAGGGAAAAGUUAUCAGGCAUGCACCUGGUAGCUAGUCUUUAAACCAAUAGAUUGCAUCGGUUUAAAAGGCAAGACCGUCAAAUUGCGGGAAAGGGGUCAACAGCCGUUCAGUACCAAGUCUCAGGGGAAACUUUGAGAUGGCCUUGCAAAGGGUAUGGUAAUAAGCUGACGGACAUGGUCCUAACCACGCAGCCAAGUCCUAAGUCAACAGAUCUUCUGUUGAUAUGGAUGCAGUUCACAGACUAAAUGUCGGUCGGGGAAGAUGUAUUCUUCUCAUAAGAUAUAGUCGGACCUCUCCUUAAUGGGAGCUAGCGGAUGAAGUGAUGCAACACUGGAGCCGCUGGGAACUAAUUUGUAUGCGAAAGUAUAUUGAUUAGUUUUGGAGUACUCGUGGUCG
Method in brief: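 DiMSum derived fitness as the error-weighted combination of fold changes across replicates, kanamycin versus no kanamycin, normalised to wild type. E. coli BL21(DE3) held the library, which randomised all eight P1ex-region intron nucleotides within the knt kanamycin-resistance gene on pET-22b(+). Six replicate transformations grew overnight at 37°C or 30°C on LB agar with or without 25 μg/mL kanamycin, also containing 100 μg/mL carbenicillin, 50 μM IPTG and 0.2% rhamnose, and pooled colonies were amplicon-sequenced on an Illumina HiSeq 2500.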

| Sequence | self-splicing fitness (ln) (30 °C) | self-splicing fitness (ln) (37 °C) |
| --- | --- | --- |
| UUGUAGCAAUAUUACGCUCA | -1.27 ± 0.14 | 0.0359 ± 0.18 |
| UUGUAGCAAUAUUACGCUCC | -2.12 ± 0.43 | – |
| UUGUAGCAAUAUUACGGAAG | -3.94 ± 0.33 | -1.7 ± 0.36 |
| UUGUAGCAAUAUUACGGAUA | -2.68 ± 0.24 | -1.42 ± 0.23 |
| UUGUAGCAAUAUUACGGGGG | -2.82 ± 0.41 | – |
| UUGUAGCAAUAUUACGGUAA | -1.2 ± 0.16 | -0.727 ± 0.13 |
| UUGUAGCAAUAUUACGGUAU | -0.659 ± 0.35 | – |
| UUGUAGCAAUAUUACGGUGG | -1.75 ± 0.12 | -1.28 ± 0.17 |
| UUGUAGCAAUAUUACGUAAC | – | -2.12 ± 0.43 |
| UUGUAGCAAUAUUACGUCGA | -0.938 ± 0.088 | -0.226 ± 0.11 |
| UUGUAGCAAUAUUACGUGGG | -4.04 ± 0.46 | -2.06 ± 0.24 |
| UUGUAGCAAUAUUACGUUCG | -0.926 ± 0.14 | -0.622 ± 0.16 |
| UUUAAGCAAUAUUACGAAGA | -2.77 ± 0.27 | -1.33 ± 0.21 |
| UUUAAGCAAUAUUACGACAA | -0.409 ± 0.098 | -0.304 ± 0.12 |
| UUUAAGCAAUAUUACGACCA | -0.979 ± 0.27 | -0.376 ± 0.24 |
| UUUAAGCAAUAUUACGACCG | -0.889 ± 0.18 | 0.563 ± 0.26 |
| UUUAAGCAAUAUUACGAGAG | -1.49 ± 0.11 | -1.13 ± 0.12 |
| UUUAAGCAAUAUUACGAUUG | -1.36 ± 0.15 | -1.12 ± 0.16 |
| UUUAAGCAAUAUUACGCGAA | -1.43 ± 0.12 | -0.145 ± 0.15 |
| UUUAAGCAAUAUUACGCGAG | -0.722 ± 0.11 | 0.0933 ± 0.13 |
| UUUAAGCAAUAUUACGCGUU | -2.79 ± 0.19 | -2.51 ± 0.23 |
| UUUAAGCAAUAUUACGCUGG | -2.26 ± 0.21 | -0.317 ± 0.18 |
| UUUAAGCAAUAUUACGGACA | -0.552 ± 0.17 | -0.126 ± 0.16 |
| UUUAAGCAAUAUUACGGACU | -1.59 ± 0.14 | -0.921 ± 0.13 |
| UUUAAGCAAUAUUACGGAGG | -2.95 ± 0.22 | -2.18 ± 0.27 |

| Sequence | self-splicing fitness (ln) (30 °C) | self-splicing fitness (ln) (37 °C) |
| --- | --- | --- |
| UUUAAGCAAUAUUACGGCUC | -1.82 ± 0.17 | -0.633 ± 0.2 |
| UUUAAGCAAUAUUACGGGCG | -0.49 ± 0.13 | 0.635 ± 0.21 |
| UUUAAGCAAUAUUACGUACU | -1.14 ± 0.12 | -0.327 ± 0.14 |
| UUUAAGCAAUAUUACGUAGC | – | -2.34 ± 0.36 |
| UUUAAGCAAUAUUACGUCCG | -1.17 ± 0.22 | 0.606 ± 0.21 |
| UUUCAGCAAUAUUACGAAAG | -3.23 ± 0.24 | -1.87 ± 0.22 |
| UUUCAGCAAUAUUACGAAUU | -1.67 ± 0.081 | -0.87 ± 0.12 |
| UUUCAGCAAUAUUACGACAC | -2.24 ± 0.16 | -2.97 ± 0.22 |
| UUUCAGCAAUAUUACGACCU | -1.28 ± 0.25 | -0.834 ± 0.43 |
| UUUCAGCAAUAUUACGAGGA | -0.995 ± 0.18 | -0.121 ± 0.22 |
| UUUCAGCAAUAUUACGAGUU | -2.96 ± 0.25 | -2.06 ± 0.19 |
| UUUCAGCAAUAUUACGAUAA | 0.592 ± 0.13 | 0.707 ± 0.15 |
| UUUCAGCAAUAUUACGAUCU | -2.25 ± 0.19 | -0.561 ± 0.17 |
| UUUCAGCAAUAUUACGAUUA | 0.327 ± 0.096 | 0.0465 ± 0.088 |
| UUUCAGCAAUAUUACGCAAC | -3.51 ± 0.28 | -1.8 ± 0.22 |
| UUUCAGCAAUAUUACGCACA | -0.372 ± 0.12 | 0.127 ± 0.15 |
| UUUCAGCAAUAUUACGCCGA | – | -0.923 ± 0.44 |
| UUUCAGCAAUAUUACGGAAA | -2.7 ± 0.47 | -2.07 ± 0.22 |
| UUUCAGCAAUAUUACGGAAU | -3.77 ± 0.23 | -2 ± 0.2 |
| UUUCAGCAAUAUUACGGGUA | -0.909 ± 0.1 | -0.337 ± 0.12 |
| UUUCAGCAAUAUUACGGUAU | -3.02 ± 0.19 | -1.67 ± 0.15 |
| UUUCAGCAAUAUUACGGUUU | -0.595 ± 0.073 | -0.244 ± 0.092 |
| UUUCAGCAAUAUUACGUCCC | -1.43 ± 0.39 | -0.811 ± 0.4 |
| UUUCAGCAAUAUUACGUCCG | -1.59 ± 0.14 | -1 ± 0.21 |

Reference: the supplement of paper PMC7877785
